Here are results for 1 protein from publication PMC7966800, “Adiponectin-expressing Treg facilitate T lymphocyte development in thymic nurse cell complexes” (Communications Biology, 2021).

As usually defined, the stoichiometry N is a count of units in the complex or per binding partner.

“And” between values parts separate entries of the source, which are not always exact repeats. Equal entries are not always repeated.

This series deals with the molecule itself. Put plainly: non-reducing SDS-PAGE with Western blotting; thymus lysate of WT mice; non-reducing SDS-PAGE, polyclonal antibody to murine adiponectin.

B1: Adiponectin (natural protein, mouse (endogenous in thymus), UniProt Q60994 18-247, looked up)
chain: EDDVTTTEELAPALVPPPKGTCAGWMAGIPGHPGHNGTPGRDGRDGTPGEKGEKGDAGLLGPKGETGDVGMTGAEGPRGFPGTPGRKGEPGEAAYVYRSAFSVGLETRVTVPNVPIRFTKIFYNQQNHYDGSTGKFYCNIPGLYYFSYHITVYMKDVKVSLFKKDKAVLFTYDQYQEKNVDQASGSVLLHLEVGDQVWLQVYGDGDHNGLYADNVNDSTFTGFLLYHDTN
notes: adiponectin, mouse, endogenous protein of thymus and thymic nurse cell (TNC) complexes; found as trimer, hexamer and HMW oligomers; Endogenous secreted glycoprotein; detected with a polyclonal antibody against murine adiponectin; also called Adn; ADIPOQ; source: endogenous, thymus tissue and TNC complexes of wild-type mice, in lysate
On to B1, for which the “stoichiometry N” value is 3 and 6.
